In the supplement of paper PMC12042874:
± gives the uncertainty stated by the source.

Assay: amyloid nucleation score (Sup35N fusion, yeast selection) (log enrichment); library NNK2; higher = more nucleation; inactive = no reads after selection
Method in brief: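 Peptides of 20 random codons fused to Sup35N were expressed in psi-negative yeast, induced 24 hours with 100 μM copper sulfate, then grown 7 days at 30°C on medium lacking adenine and uracil. Input and output plasmid inserts were Illumina-sequenced. Nucleation score is the DiMSum log enrichment of output over input reads, centred on the mode score of non-aggregating sequences, excluding sequences with under 100 input reads. Random libraries had three technical output replicates.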

Row | Substance | amyloid nucleation score
1 | SVAFILVPNEWLVKRAASSG | -0.264 ± 0.45
2 | SVCELKW | 0.53 ± 0.38
3 | SVCVRT | inactive
4 | SVDIKIFLQPAYFCNATAAV | 6.435 ± 0.039
5 | SVDRNNTYLYRLKYAFWAMG | 6.644 ± 0.043
6 | SVFGTLFDYGRRSTTFNGLK | inactive
7 | SVFKMNEGFGNEHSNAPMRG | inactive
8 | SVFYHLYSHWIFIVCTNTRR | -0.414 ± 0.43
9 | SVFYIYWRSWLFFRSLGLFI | inactive
10 | SVGGETITRWKCIWMTRRTE | 1.77 ± 0.16
11 | SVKIWCFIWEFPCFMLFRAL | -0.168 ± 1.1
12 | SVLIAQLDAAYGISVVRSPG | 0.264 ± 0.18
13 | SVLVVPVT | 0.182 ± 0.79
14 | SVMIWIIASNIDILSVVFRL | -0.573 ± 1.1
15 | SVNWSFRSMNIFH | 3.45 ± 0.055
16 | SVRFPITVMFRFSRWFTETY | -0.264 ± 0.37
17 | SVSGIGWFGGEQHAWS | -0.531 ± 0.79
18 | SVSGTLFPGYCWGNGKAGHF | 1.56 ± 0.091
19 | SVTRWEHAMAVPKKLLHSGR | 1.05 ± 0.23
20 | SVVEEKIGEFTWSWDTDSAN | 0.568 ± 0.66
21 | SVVFLRLGYGKLRV | -0.159 ± 1
22 | SVVVDIKGVDWVVRVLVGKR | -0.484 ± 0.65
23 | SVYCSNNNTFDAFYVEWVFA | inactive
24 | SVYDTKHLLNLLDSAVISNH | -0.481 ± 0.76
25 | SWCFVNGWWLYESAWEVMDS | -0.199 ± 1.1

Row | Substance | amyloid nucleation score
26 | SWGFI | -2.19 ± 0.62
27 | SWITPMRHLFSNHSLGLNAY | -0.298 ± 0.43
28 | SWSRYGCGVYSDVGVTLLQF | 0.201 ± 0.63
29 | SWTCFTLVVRRTAGYWVWSA | 0.331 ± 0.33
30 | SWTCHGGNLYS | 0.222 ± 0.8
31 | SWTHRAGYIKRMSE | -0.212 ± 0.55
32 | SYCHCASGPFSLNPYSLLVC | 0.716 ± 0.66
33 | SYDDVVILDFYDGIL | inactive
34 | SYDVRVAKINSPLGG | -0.397 ± 0.79
35 | SYFEMAYEWYCMNWMGEVIK | 9.197 ± 0.054
36 | SYFMRDSTN | inactive
37 | SYFSVKHDRR | -0.228 ± 0.35
38 | SYFWRYFM | 0.087 ± 0.79
39 | SYFYPCLRNLYLPLWWRSHS | -0.515 ± 0.38
40 | SYGHDWVGKGKVGGIRLM | -0.904 ± 0.49
41 | SYGLRSC | 0.174 ± 0.63
42 | SYHFQDLW | -0.461 ± 0.25
43 | SYHVVCFVYVLVTFLLWCSH | 2.22 ± 0.14
44 | SYILEFFHWIRSRLEYYGY | -1.5 ± 0.76
45 | SYLLSRYLRPKGYADNIVYA | inactive
46 | SYNTHQLSRSPF | -0.131 ± 0.23
47 | SYRNLDKTIRSDKLQVNLGI | -1.57 ± 1.1
48 | SYSDPETFISWVLVDWCLMS | -0.753 ± 0.55
49 | SYSYFLELVSYKFSVVFLSI | 0.715 ± 0.58
50 | SYVCRYITVPGFDTN | 4.76 ± 0.08

Row | Substance | amyloid nucleation score
51 | SYVEHTMILDMRPTCHTLPH | 5.08 ± 0.11
52 | SYYMISY | 2.05 ± 0.12
53 | TAAGLFISNNHMNYFDAIAY | -1.09 ± 0.78
54 | TASFK | -0.014 ± 0.76
55 | TASPSILTSKVTRYNLTVGC | -0.072 ± 0.5
56 | TCAGIV | 0.408 ± 0.41
57 | TCFHR | 0.285 ± 0.55
58 | TCLSRVPPS | -0.797 ± 0.61
59 | TCRQSEATLLVLEYVRESCS | 0.809 ± 0.3
60 | TCSRDVFGWTVLGTGLPPLR | 0.878 ± 0.32
61 | TCVCDIYSSTVVSFLHSNRV | 5.44 ± 0.1
62 | TDITKVSGTFNHSMEPIWYT | inactive
63 | TDLIINMSQNR | 2.42 ± 0.1
64 | TDQDT | 0.516 ± 0.32
65 | TDYHMFYRLDCLPLTTTCPV | 4.88 ± 0.087
66 | TEDDCGK | 0.975 ± 0.17
67 | TEGRVDPLCDERAILMVFDV | 0.768 ± 0.5
68 | TETTVFILLFWLLVILGRVH | inactive
69 | TFDRCPNNSGNDMTNGPESW | 1.21 ± 0.096
70 | TFDVTRI | -0.311 ± 0.33
71 | TFFNNWMALKYRNYQFIMSG | inactive
72 | TFFYMRFPGFLFSNSSNAW | 1.47 ± 0.24
73 | TFGESSIVNNPYFLHESGHS | 0.813 ± 0.48
74 | TFGTSFKYFMSWLIDRCCYL | -0.836 ± 1.1
75 | TFIAMSQALMTVYIGALLQW | 3.57 ± 0.061

Row | Substance | amyloid nucleation score
76 | TFKMSGINPTD | -1.19 ± 0.3
77 | TFMAIRSLNSSASGWATGF | 3.01 ± 0.049
78 | TFTVKCTDGGSCF | 1.01 ± 0.24
79 | TFYRACALTLMRDQTDSWYC | 4.35 ± 0.091
80 | TFYYTAECWAWRNMQESSHT | 0.054 ± 0.32
81 | TGCVKGYSSRWWESFYGGTR | -0.762 ± 0.79
82 | TGELSAQHKASTYYCYCWLF | 4.43 ± 0.076
83 | TGFQLVNWSNIGLWNNLYGR | 5.49 ± 0.065
84 | TGHKFPLRGSMRVVLDFFSR | 3.09 ± 0.089
85 | TGKFL | inactive
86 | TGLTH | -0.737 ± 0.54
87 | TGMQMFMVVWLGQLDRSDTI | 1.07 ± 0.28
88 | TGNTFIPSLFICRIEGSTSA | 0.506 ± 0.44
89 | TGPGSFFRRSGDTHLYSRDG | inactive
90 | TGPIWLCYACAWTNTYTPAE | 9.357 ± 0.055
91 | TGQSKDNQDSNMGVICLFYS | 4.389 ± 0.04
92 | TGRGAHFHRI | -0.24 ± 0.42
93 | TGRHKVTDLRIWILWSYTGA | -0.398 ± 0.63
94 | TGRLSIVAKNYWGHSVRAFS | 0.001 ± 0.76
95 | THEIFMHSYY | -0.913 ± 1.1
96 | THFPLHV | -0.388 ± 0.37
97 | THNLAEGQGKDCVQSLDRMG | 0.22 ± 0.38
98 | THSRRLRLNAKMCLHFLWYR | -0.115 ± 0.2
99 | TIDWTMSHCMI | -0.055 ± 0.56
100 | TIFFMGM | 3.65 ± 0.07

Row | Substance | amyloid nucleation score
101 | TILDIVLIIPAKVVHKEERR | -0.093 ± 0.41
102 | TILVTKG | 4.89 ± 0.11
103 | TIRRVRSALQQHM | 0.041 ± 0.49
104 | TIRSCVNF | 1.41 ± 0.1
105 | TISDTCHESRLDVMRNVPYM | 5.091 ± 0.043
106 | TISLDM | -0.033 ± 0.25
107 | TITHLSNACTYMVDIRSFTF | 5.38 ± 0.068
108 | TKATRINEGLLNLYALFGGK | 0.974 ± 0.17
109 | TKICMASHATVFALYVYCSL | inactive
110 | TKRAIDWA | 0.669 ± 0.8
111 | TKRHE | 0.987 ± 0.58
112 | TKTILRILSQFIYDSPLLEM | -0.19 ± 1.1
113 | TKVQERLGHF | 1.46 ± 0.58
114 | TLASRTNF | inactive
115 | TLCWLYLWVYRCKDYEELTC | -0.167 ± 0.63
116 | TLDVGLGAAQCVIGISGWYE | 1.1 ± 0.15
117 | TLFIMC | 0.074 ± 0.54
118 | TLFLRMVSLHFKSVVLWNWF | 0.213 ± 0.8
119 | TLFQFWKYLVSTTCIML | 3.18 ± 0.11
120 | TLGGSSTFRY | -0.152 ± 0.45
121 | TLGMYFFVSMLSLLVSVNGF | -0.427 ± 1.1
122 | TLGVSRNLALSTEARTLRPY | -0.041 ± 0.42
123 | TLLFHTRSYVYICVLVWKQH | 0.049 ± 0.8
124 | TLLSASYGV | -0.742 ± 0.79
125 | TLLWSRTMYVGIPSYRYGGA | 0.676 ± 0.8

Row | Substance | amyloid nucleation score
126 | TLMDLNNHPTYGYLLVPTVD | -0.307 ± 0.79
127 | TLMFVKNFDVRCEWEASFTM | 5.37 ± 0.077
128 | TLRSETMSDWYSRLHGFVFK | 0.988 ± 0.52
129 | TLVRSVQLCCGISAWNMEAR | 11.43 ± 0.031
130 | TLYFYFRLSW | 0.276 ± 0.8
131 | TLYYIVRHQICANFYRMYNG | inactive
132 | TMFLYSNAEDFF | inactive
133 | TMLTFG | -0.913 ± 0.76
134 | TMRFLVGFCLTNWDNLNASC | 3.67 ± 0.05
135 | TMSQYLGNRCTTNGYSFGVS | -0.272 ± 1.1
136 | TMYFWLMSLVWLLSVSFRAW | 2.54 ± 0.1
137 | TNAIYRGVLGSMDQGT | inactive
138 | TNISMLNDVGEGCFGERSLV | -0.291 ± 0.54
139 | TNQGFLWVSPLILTRCGDRQ | 6.68 ± 0.079
140 | TNSALGSMVYELGRPLVWFF | inactive
141 | TNTLMGPFWLSWSNVQPNRS | -0.787 ± 0.54
142 | TNWGNAVSSAMRLGSL | 0.438 ± 0.28
143 | TPCIMWKLGLFFVDCCFGFP | 4.1 ± 0.12
144 | TPDVLGLRHYRLTIVTYH | 1.22 ± 0.31
145 | TPGCF | inactive
146 | TPNNYLYTSFVAY | inactive
147 | TPSECRCWEEFHGWTHLLRL | 0.461 ± 0.48
148 | TPSRFWPMLFSVNLWLRGWL | 0.017 ± 0.62
149 | TPTWESNQVL | 0.502 ± 0.65
150 | TPVSCFTCRQCLVTGLHTLR | 0.466 ± 0.26

Row | Substance | amyloid nucleation score
151 | TPVYPRRSIVLICSISMLRK | 4.12 ± 0.064
152 | TQINEVLL | -0.722 ± 0.28
153 | TQLIVMCHFVVHRRVKWRI | 0.786 ± 0.3
154 | TQLSV | -0.046 ± 1
155 | TRAFLIIRYVKLDTNFVI | 2.19 ± 0.064
156 | TRALDPVSVSRISVRQQPLA | 1.12 ± 0.2
157 | TRAPGRDFVGEGEACALDET | -0.799 ± 0.54
158 | TRCKHDDVW | 1.5 ± 0.33
159 | TRGCFAVSSKYMLSYVGLNR | -0.021 ± 0.21
160 | TRLCRNLAASPGFLWTVYKS | inactive
161 | TRLVWIFLSPM | -0.169 ± 0.25
162 | TRNSFRSSLWVLRGGCV | -0.523 ± 0.37
163 | TRPRVKPWAMFRNIYD | -1.33 ± 0.44
164 | TRRCIERNRNVLFFTFMCRL | 1.41 ± 0.27
165 | TRSYQLLLVSLVAGNFVE | 1.5 ± 0.27
166 | TRTQMW | 0.739 ± 0.43
167 | TRVFTSWFVV | 0.342 ± 0.65
168 | TRVNNGSTVHNKMLTS | 0.634 ± 0.74
169 | TRYMFMVTKLPGPGGCSVNE | inactive
170 | TSANLLLYRVLKSFLARQHQ | 0.062 ± 0.46
171 | TSIMPDSFFRSLKVSF | -0.249 ± 0.56
172 | TSRKTEFQPFAGSICLYMGI | 0.18 ± 0.63
173 | TSRML | 0.67 ± 0.39
